In test [1] the target is taxol-stabilized microtubules (porcine brain tubulin) (porcine). The test is described as follows: TIRF microscopy binding assay (fluorescence intensity on filaments); fluorescent MAP1B constructs in solution on taxol-stabilized microtubules held on the coverslip; titrations for KD (KD of the LC called apparent); 10 nM on WT and subtilisin-digested microtubules in the same chamber; 90 mM Hepes pH 7.4, 150 mM K-acetate, 2 mM Mg-acetate, 1 mM EGTA, 10% glycerol, 10 uM taxol.

Test [2] addresses subtilisin-digested microtubules (porcine brain tubulin without the C-terminal tails) (porcine). The description is as above.
For test [3], the target named is taxol-stabilized microtubules (porcine brain tubulin) (porcine).
For test [4] the target is unchanged. The test is described as follows: TIRF microscopy binding assay (fluorescence intensity on filaments); 50 nM bacterially expressed HC^1-1500 on microtubules after incubation with DYRK1a with or without ATP (37 C, 30 min).
Test [5] addresses actin filaments (rabbit skeletal muscle actin) (rabbit) (UniProt P68135). The test is described as follows: TIRF microscopy binding assay (fluorescence intensity on filaments); 50 nM bacterially expressed HC^1-1500 on actin filaments after incubation with DYRK1a with or without ATP (37 C, 30 min).
In test [6] the target is tubulin (taxol-stabilized microtubules). The test is described as follows: TIRF intensity of HC on microtubules. Particulars: reference: HC1-1500 + DYRK1a without ATP.
Test [7] addresses actin (filaments) (UniProt P68135). The test is described as follows: TIRF intensity of HC on actin filaments. The conditions noted are these: reference: HC1-1500 + DYRK1a without ATP.

For the substance “MAP1B HC^1-2202-sfGFP (full-length MAP1B heavy chain) (from UniProt P14873 1-2202) (domain or fragment)”, the Kd in test [1] worked out at 3.8 nM.
Take “sfGFP-MAP1B HC^1-1500, bacterially expressed (from UniProt P14873 1-1500) (domain or fragment)”: the percent decrease of fluorescence intensity against WT microtubules in test [2] is 45%. Besides, the Kd in test [1] amounted to 1.8 nM.
Regarding “MAP1B LC 2203-2464-sfGFP (from UniProt P14873 2203-2464) (domain or fragment)”, the percent decrease of fluorescence intensity against WT microtubules in test [2] is 87%. Besides, the Kd in test [1] was 1.5 nM.
Consider “TMR-spastin (truncated human spastin, delta227) (from UniProt Q9UBP0 1-616) (enzyme)”, for which, in test [3], the reduction of microtubule fluorescence intensity after 10 min with spastin (severing) in the presence of 10 nM LC-sfGFP; 82% with spastin alone stood at 19% and the reduction of microtubule fluorescence intensity after 10 min with spastin (severing) in the presence of 50 nM sfGFP-HC^1-1500; 82% with spastin alone was 60%.
Consider “MAP1B HC MTBD^639-767 (from UniProt P14873 639-767) (domain or fragment)”, for which the Kd in test [1] was 13.6 nM.
Still for that read-out and setting: the figure for “sfGFP-MAP1B HC^1-1103 (from UniProt P14873 1-1103) (domain or fragment)” is 1.1 nM.
For the substance “sfGFP-MAP1B HC^1-1500, bacterially expressed, phosphorylated by DYRK1a (from UniProt P14873 1-1500) (domain or fragment)”, the percent reduction of fluorescence intensity on microtubules against the sample without ATP in test [4] was determined as 21%. Besides, the percent reduction of fluorescence intensity on actin filaments against the sample without ATP in test [5] worked out at 75%.
On to “MAP1B (heavy chain HC, light chain LC/LC1) HC 1-1500 (from UniProt P14873) HC1-1500 + DYRK1a with ATP”, for which the values for the other: percent reduction in test [6] and in test [7] were 21% and 75%, respectively.
For “sfGFP-MAP1B HC^1-532 (from UniProt P14873 1-532) (domain or fragment)”, the Kd in test [1] was 185 nM.

The values are drawn from article PMC11530598.
